The results in this text go back to the supplement of paper PMC7877785.

A short description of the series: self-splicing fitness, log relative to wild type (ln ratio); higher = more splicing; Tetrahymena group I intron in knt gene, E. coli kanamycin selection, DiMSum; sequences stand for … in CUCUCU…GGAGGGAAAAGUUAUCAGGCAUGCACCUGGUAGCUAGUCUUUAAACCAAUAGAUUGCAUCGGUUUAAAAGGCAAGACCGUCAAAUUGCGGGAAAGGGGUCAACAGCCGUUCAGUACCAAGUCUCAGGGGAAACUUUGAGAUGGCCUUGCAAAGGGUAUGGUAAUAAGCUGACGGACAUGGUCCUAACCACGCAGCCAAGUCCUAAGUCAACAGAUCUUCUGUUGAUAUGGAUGCAGUUCACAGACUAAAUGUCGGUCGGGGAAGAUGUAUUCUUCUCAUAAGAUAUAGUCGGACCUCUCCUUAAUGGGAGCUAGCGGAUGAAGUGAUGCAACACUGGAGCCGCUGGGAACUAAUUUGUAUGCGAAAGUAUAUUGAUUAGUUUUGGAGUACUCGUGGUCG
The gist of the method:
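Fitness was computed with DiMSum as the error-weighted combination of replicate fold changes, kanamycin versus none, each normalised to wild type. The library randomised all eight intron nucleotides of the P1ex region, with the intron placed in the knt kanamycin-resistance gene on pET-22b(+) in E. coli BL21(DE3). Six replicate transformations were grown overnight at 37°C or 30°C on LB agar with or without 25 μg/mL kanamycin, plus 100 μg/mL carbenicillin, 50 μM IPTG and 0.2% rhamnose. Pooled colonies were amplicon-sequenced on an Illumina HiSeq 2500.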

± gives the uncertainty stated by the source.

On to UAAGAGCAAUAUUACGGGCU, for which, under “37 °C”, the “self-splicing fitness (ln)” value was -2.53 ± 0.32.
In the case of UAUGAGCAAUAUUACGUCCU, the “self-splicing fitness (ln)” value is, setting by setting: (30 °C) -2.35 ± 0.23; (37 °C) -2.19 ± 0.49.
Regarding GUUCAGCAAUAUUACGAGGG, the “self-splicing fitness (ln)” value by setting is: (30 °C) -2.72 ± 0.19; (37 °C) -0.563 ± 0.16.
For the sequence GCAUAGCAAUAUUACGUAUA, the “self-splicing fitness (ln)” value by setting is: (30 °C) -3.23 ± 0.29; (37 °C) -1.52 ± 0.24.
For UUGGAGCAAUAUUACGGCUG, the “self-splicing fitness (ln)” value (30 °C) was -2.22 ± 0.28.
As for CAAAAGCAAUAUUACGUUCU, the “self-splicing fitness (ln)” value is, setting by setting: (30 °C) -1.3 ± 0.14; (37 °C) -0.926 ± 0.14.
For CAUGAGCAAUAUUACGUUGA, in that order: -2.92 ± 0.18 and -3.4 ± 0.29.
Consider UUUAAGCAAUAUUACGACGA, for which the “self-splicing fitness (ln)” value (30 °C) was 0.228 ± 0.089 and the “self-splicing fitness (ln)” value (37 °C) worked out at 0.29 ± 0.11.
The like results for AUCAAGCAAUAUUACGUAAA were, in that order, -2.59 ± 0.13 and -1.11 ± 0.12.
The like results for AGGUAGCAAUAUUACGCUUG were, in that order, -1.541 ± 0.015 and -1.04 ± 0.034.
Take CCAAAGCAAUAUUACGAGCA: the “self-splicing fitness (ln)” value reads like this: (30 °C) -3.64 ± 0.23; (37 °C) -3.23 ± 0.26.
Regarding GCCGAGCAAUAUUACGGUAU, the “self-splicing fitness (ln)” value by setting is: (30 °C) -1.89 ± 0.13; (37 °C) -0.878 ± 0.12.
For CAUUAGCAAUAUUACGCGGG, in that order: -1.95 ± 0.3 and 0.421 ± 0.2.
The like results for GCUCAGCAAUAUUACGAAGG were, in that order, -0.909 ± 0.073 and -0.29 ± 0.1.
The like results for UCAUAGCAAUAUUACGAUGA were, in that order, -2.65 ± 0.18 and -0.815 ± 0.11.
Regarding UUUUAGCAAUAUUACGCAUU, the “self-splicing fitness (ln)” value by setting is: (30 °C) -2.39 ± 0.11; (37 °C) -1.27 ± 0.15.
Regarding ACUUAGCAAUAUUACGAAGC, for the setting “37 °C”, the “self-splicing fitness (ln)” value is -2.25 ± 0.5.
Take AAGUAGCAAUAUUACGAUAA: the “self-splicing fitness (ln)” value was -1.36 ± 0.12 (30 °C) and -1.09 ± 0.13 (37 °C).
On to GUUGAGCAAUAUUACGCCUG, for which the “self-splicing fitness (ln)” value (37 °C) is -2.05 ± 0.35.
In the case of GCCCAGCAAUAUUACGGAUC, the “self-splicing fitness (ln)” value runs as follows: (30 °C) -0.448 ± 0.044; (37 °C) -0.289 ± 0.056.
With CUGAAGCAAUAUUACGACUA, the “self-splicing fitness (ln)” value was -1.29 ± 0.16 (30 °C) and -0.875 ± 0.21 (37 °C).
For ACCUAGCAAUAUUACGUAUG, in that order: -2.71 ± 0.097 and -1.61 ± 0.099.
For ACUUAGCAAUAUUACGUUCG, in that order: -1.52 ± 0.18 and -0.802 ± 0.18.
The like results for GUCAAGCAAUAUUACGAUCA were, in that order, -1.76 ± 0.23 and -0.845 ± 0.15.
UUAGAGCAAUAUUACGUAAU: the “self-splicing fitness (ln)” value is -2.77 ± 0.31 (30 °C) and -1.69 ± 0.36 (37 °C).
Regarding GAUUAGCAAUAUUACGCGCU, the “self-splicing fitness (ln)” value (37 °C) is -1.92 ± 0.4.
Regarding UUUAAGCAAUAUUACGCGUG, the “self-splicing fitness (ln)” value reads like this: (30 °C) -1.15 ± 0.13; (37 °C) -0.368 ± 0.14.
The like results for UGACAGCAAUAUUACGUAAC were, in that order, -4.4 ± 0.46 and -2.38 ± 0.19.
The like results for CACUAGCAAUAUUACGGGCU were, in that order, -4.24 ± 0.39 and -3.52 ± 0.33.
For GAACAGCAAUAUUACGCACA, in that order: -0.348 ± 0.082 and -0.338 ± 0.094.
As to UGCGAGCAAUAUUACGAUGU, the “self-splicing fitness (ln)” value is -3.53 ± 0.13 (30 °C) and -2.97 ± 0.18 (37 °C).
The like results for UGCCAGCAAUAUUACGAGGG were, in that order, -2.61 ± 0.18 and -1.94 ± 0.19.
On to ACUCAGCAAUAUUACGAAUA, for which the “self-splicing fitness (ln)” value is -1.99 ± 0.14 (30 °C) and -0.941 ± 0.15 (37 °C).
For UACCAGCAAUAUUACGUUAU, in that order: -2.97 ± 0.12 and -2.26 ± 0.14.
For AGACAGCAAUAUUACGUGCA, in that order: -0.683 ± 0.069 and -0.00672 ± 0.079.
As for GGCAAGCAAUAUUACGAGCG, the “self-splicing fitness (ln)” value is, setting by setting: (30 °C) -0.697 ± 0.073; (37 °C) 0.427 ± 0.097.
For AUGCAGCAAUAUUACGGGAC, the “self-splicing fitness (ln)” value is, setting by setting: (30 °C) -2.82 ± 0.17; (37 °C) -2.74 ± 0.19.
CUAUAGCAAUAUUACGAAGU: the “self-splicing fitness (ln)” value was -3.32 ± 0.25 (30 °C) and -1.93 ± 0.28 (37 °C).
The like results for AUAGAGCAAUAUUACGGUAA were, in that order, -1.76 ± 0.15 and -1.42 ± 0.17.
For GUAAAGCAAUAUUACGCAGA, in that order: -2.79 ± 0.22 and -0.446 ± 0.17.
As for AAGUAGCAAUAUUACGAUUC, the “self-splicing fitness (ln)” value runs as follows: (30 °C) -0.923 ± 0.12; (37 °C) -0.577 ± 0.15.
In the case of ACGCAGCAAUAUUACGGCGA, the “self-splicing fitness (ln)” value reads like this: (30 °C) -0.895 ± 0.1; (37 °C) -0.0901 ± 0.14.
For the sequence GACGAGCAAUAUUACGUGAA, under “37 °C”, the “self-splicing fitness (ln)” value was -2.29 ± 0.32.
With GGAGAGCAAUAUUACGACCU, the “self-splicing fitness (ln)” value was -1.9 ± 0.24 (30 °C) and -0.666 ± 0.26 (37 °C).
The like results for GCUAAGCAAUAUUACGGUAG were, in that order, -3.12 ± 0.21 and -3.35 ± 0.3.
The like results for GACGAGCAAUAUUACGACGU were, in that order, -2.31 ± 0.23 and -1.13 ± 0.25.
With GGCAAGCAAUAUUACGGCAU, the “self-splicing fitness (ln)” value by setting is: (30 °C) -0.207 ± 0.043; (37 °C) 0.531 ± 0.06.
Consider ACACAGCAAUAUUACGUUAG, for which the “self-splicing fitness (ln)” value is, setting by setting: (30 °C) -3.46 ± 0.094; (37 °C) -2.44 ± 0.1.
The like results for ACGGAGCAAUAUUACGACCU were, in that order, -1.69 ± 0.2 and -1.34 ± 0.25.
For the sequence GAAGAGCAAUAUUACGGGAU, the “self-splicing fitness (ln)” value (30 °C) is -3.63 ± 0.22 and the “self-splicing fitness (ln)” value (37 °C) is -3.16 ± 0.3.
For CUCGAGCAAUAUUACGGAAU, in that order: -3.24 ± 0.2 and -3.23 ± 0.38.
The like results for AGUAAGCAAUAUUACGUGUA were, in that order, -2.16 ± 0.12 and -1.8 ± 0.13.
For UAAGAGCAAUAUUACGAUAG, in that order: -3.46 ± 0.31 and -2.12 ± 0.33.
In the case of UGAGAGCAAUAUUACGAGUG, the “self-splicing fitness (ln)” value (30 °C) was -4.04 ± 0.29 and the “self-splicing fitness (ln)” value (37 °C) was -2.93 ± 0.26.
The like results for UUACAGCAAUAUUACGAUAU were, in that order, -1.83 ± 0.11 and -0.951 ± 0.14.
The like results for CCCUAGCAAUAUUACGGAUU were, in that order, -4.34 ± 0.23 and -2.26 ± 0.16.
For GCGUAGCAAUAUUACGAAUG, in that order: -1.32 ± 0.11 and -0.603 ± 0.13.
For the sequence AUCCAGCAAUAUUACGCCGU, the “self-splicing fitness (ln)” value is, setting by setting: (30 °C) -0.864 ± 0.096; (37 °C) -0.133 ± 0.12.
For GGGCAGCAAUAUUACGUGCA, in that order: -1.62 ± 0.079 and 0.116 ± 0.098.
The like results for ACAUAGCAAUAUUACGACUU were, in that order, 0.0662 ± 0.074 and -0.163 ± 0.087.
The like results for CUAUAGCAAUAUUACGAGUA were, in that order, -2.86 ± 0.41 and -1.62 ± 0.23.
Consider ACCCAGCAAUAUUACGCCAC, for which the “self-splicing fitness (ln)” value (30 °C) was -4.62 ± 0.42 and the “self-splicing fitness (ln)” value (37 °C) was -1.82 ± 0.31.
As to CUUUAGCAAUAUUACGGAGA, under “30 °C”, the “self-splicing fitness (ln)” value was -2.74 ± 0.49.
Take ACCCAGCAAUAUUACGUGUG: the “self-splicing fitness (ln)” value reads like this: (30 °C) -2.63 ± 0.062; (37 °C) -1.07 ± 0.064.
The like results for AUCUAGCAAUAUUACGGUCU were, in that order, -0.756 ± 0.078 and -0.908 ± 0.098.
With CGAGAGCAAUAUUACGAAUU, the “self-splicing fitness (ln)” value (30 °C) is -2.77 ± 0.29.
In the case of GACAAGCAAUAUUACGGAUC, the “self-splicing fitness (ln)” value is -1.19 ± 0.13 (30 °C) and -0.182 ± 0.15 (37 °C).
For AUUAAGCAAUAUUACGUUUC, in that order: -3.77 ± 0.35 and -1.65 ± 0.26.
For CGAAAGCAAUAUUACGCUUU, in that order: -3.54 ± 0.35 and -2.7 ± 0.41.
CUCAAGCAAUAUUACGGAGG: the “self-splicing fitness (ln)” value was -1.53 ± 0.098 (30 °C) and -0.576 ± 0.087 (37 °C).
For AGCCAGCAAUAUUACGAAGC, in that order: -1.65 ± 0.22 and -1.96 ± 0.37.
For CCGUAGCAAUAUUACGUUCG, in that order: -0.619 ± 0.066 and 0.0526 ± 0.095.
For CACUAGCAAUAUUACGUCCC, in that order: -2.5 ± 0.34 and -2.38 ± 0.33.
Turning to CGCAAGCAAUAUUACGGGUA, the “self-splicing fitness (ln)” value was -1.68 ± 0.086 (30 °C) and -0.81 ± 0.09 (37 °C).
The like results for GUCCAGCAAUAUUACGGUAC were, in that order, -2.97 ± 0.18 and -1.92 ± 0.17.
Take GUAAAGCAAUAUUACGUUUU: the “self-splicing fitness (ln)” value (30 °C) is -2.7 ± 0.076 and the “self-splicing fitness (ln)” value (37 °C) was -1.9 ± 0.1.
For GCACAGCAAUAUUACGCUUA, in that order: -0.908 ± 0.065 and -0.871 ± 0.062.
